Experimental data as given in the supplement of paper PMC9170038.

Tested on: MS2 coat protein
Experiment: apparent KD of MS2 coat protein; designed switch direction (-1 OFF switch, 1 ON switch): -1; higher = weaker reporter binding
In short: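 RNA switches sharing common flanks were transcribed by stalled E. coli RNA polymerase on Illumina chips. A doubling series of SNAP-549-labelled MS2 coat protein, from 0.7 or 1.5 nM to 3 µM, was applied in Tris-HCl pH 7.5 buffer with KCl, MgCl2, BSA, DTT, tRNA and Tween-20. Each step lasted 0.8–1.5 h at the bottom of the series and 10–20 min at the top. Normalised cluster fluorescence was curve-fitted, giving apparent KD as the per-design median over clusters.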

[1] = input ligand: microRNA oligo, concentration not stated
[2] = Eterna round: R95, input ligand: FMN 200 uM
[3] = Eterna round: R95, input ligand: microRNA oligo, concentration not stated
[4] = Eterna round: R95, input ligand: none

Sequence	apparent KD of MS2 coat protein (input ligand: FMN 200 uM) [nM]	apparent KD of MS2 coat protein (input ligand: none) [nM]	apparent KD of MS2 coat protein [3] [nM]	other results
GUCGUGCAGCUUUGCUGUACGAGUACAUGAGGAUCACCCAUGUAGGAUAUGGUACGCUUUGCGUGCCAGAAGGGCGUGCGUUGG [salish99_ExNG3_r04_005] (Eterna round: R96, puzzle: Exclusion NG 3)	30.2	34.6	–	apparent KD of MS2 coat protein [1]: 24 nM
GUCGUGCGGCUUUGCUGUACGAGUACAUGAGGAUCACCCAUGUAGGAUAUGGUUCGUUUUGCGUGCUAGAAGGGCGUGCGUUGU [Excl-NG3-LRO15] (Eterna round: R96, puzzle: Exclusion NG 3)	–	–	–	apparent KD of MS2 coat protein [1]: 17.9 nM
GUGAACUCGCUACUUACCAACAUGAGGAUCACCCAUGUGGGAGAAAGUGAAUAGCUAGUUGUUACGUCUUAAUCCAG [Eternabot (L1) Solution 47] (Eterna round: R97, puzzle: Sensor, turn-off variant 1)	12.7	13	–	–
GUGAAUGCAAGCUUUAAAUACAUGAGGAUCACCCAUGUAAACGCUAACCGCGAUAAUUACUGGGUACCUCCCGUCUU [Eternabot (L2) Solution 44] (Eterna round: R97, puzzle: Sensor, turn-off variant 1)	8.7	24.9	–	–
GUGACCAUAGGAUAUACAUGAGGAUCACCCAUGUGCAGGCCGAAAGACCUGCGGUCAUGUAGAAGGAUGUAAUU [EX3 A.17] (Eterna round: R97, puzzle: Exclusion 3)	19.6	16.4	–	–
GUGAGGGAGUGAGGAUAUCAGGGAGGUGGGAAAUGAGAAGGUACAUGAGGAUCACCCAUGUAAGAGUAGGGAAGAGAGAAGAGU [Default title] (Eterna round: R96, puzzle: Exclusion NG 1)	78.7	83.8	–	apparent KD of MS2 coat protein [1]: 109 nM
GUGAGUAGUCAGGAUAUGCUGUACAAAAGUACAGCAGAAGGGAUUACAUGAGGAUCACCCAUGUUUACUUCGUG [Omei Ex6 B3] (Eterna round: R97, puzzle: Exclusion 6)	105	29.7	–	–
GUGAUGUAGCACAAUAAGUUUUUUGCCGUCUUAGGUCCAACAUGAGGAUCACCCAUGUACGUCUACAUGCACUUUAA [Veveuslabe] (puzzle: Sensor v3, turn-off variant 2)	–	–	197	apparent KD of MS2 coat protein [2]: 66.4 nM; apparent KD of MS2 coat protein [4]: 81.2 nM
GUGCAACAUGAGGAUCACCCAUGUUAGGAUAUGUCCUUGGAGACGCACUAGCUCUGAGACAGAAGGGACAGAGG [Eternabot (Original) Solution 34] (Eterna round: R97, puzzle: Exclusion 1)	69.9	51.2	–	–
GUGCGGUGAGGAUAUACGUAGGUACAGAUCUGUGUGUUCCUACAUGAGGAUCACCCAUGUAGAAGGCAUGGCAC [LRO-Excl2-12] (puzzle: Exclusion 2)	–	–	38.4	–
GUGGGACAUGAGGAUCACCCAUGUCAGGAUAUUUGGGCGAGAUUCGAUCUCGUUAGCCGGAGAAGGGACGUAUG [Eternabot (L2) Solution 47] (Eterna round: R97, puzzle: Exclusion 1)	34.7	25	–	–
GUGGUACAUGAGGAUCACCCAUGUCAGGAUAUCGUGUGUUUUUUUUCGGCCGCGCGCGCGAGAAGGGACGUCUU (puzzle: Exclusion 1)	–	–	16.8	–
GUGGUACAUGAGGAUCACCCAUGUGAGGAUAUGUCUGUCUGUUGGUUUCGGCGGGCGGGCAGAAGGCGCGUCGC [-27.3, -25.1 kcal, 16% A] (Eterna round: R97, puzzle: Exclusion 1)	34.1	31.6	–	–
GUGGUGGGUUUUCCGAGUAACAUGAGGAUCACCCAUGUAGAAGUUGAAGGUAUCAAGCGAAUGGCUCGUCAAAUGUG [JR_SV3TOV1_Sub047] (puzzle: Sensor v3, turn-off variant 1)	–	–	17.5	apparent KD of MS2 coat protein [2]: 42.3 nM; apparent KD of MS2 coat protein [4]: 46.4 nM
GUGGUGGGUUUUCCGAGUGACAUGAGGAUCACCCAUGUGUUAGUUUGAGGUAUCAAGCGAAUGGCUCGUCUUAUGUG [JR_SV3TOV1_Sub046] (Eterna round: R96, puzzle: Sensor v3, turn-off variant 1)	982	623	–	apparent KD of MS2 coat protein [1]: 44.7 nM
GUGGUGGGUUUUCCGAGUGACAUGAGGAUCACCCAUGUGUUAGUUUGAGGUAUCAAGCGAAUGGCUCGUCUUAUGUG [JR_SV3TOV1_Sub046] (puzzle: Sensor v3, turn-off variant 1)	–	–	21.2	apparent KD of MS2 coat protein [2]: 140 nM; apparent KD of MS2 coat protein [4]: 154 nM
GUGUAACUACACGGGCUCAACAUGAGGAUCACCCAUGUCAUACACGCAAGCUUUUUGCUUGUCUUAUCUGUCCGUGA [Raenzama] (puzzle: Sensor v3, turn-off variant 1)	–	–	13.5	apparent KD of MS2 coat protein [2]: 12.1 nM; apparent KD of MS2 coat protein [4]: 10.4 nM
GUGUACAGAGGAUAUACUUGAAUCUAGCGAAGCUAGGUUUGACAUGAGGAUCACCCAUGUAGAAGGCUGUACAC [Dot plot directed A v1] (puzzle: Exclusion 2)	–	–	13.7	–

Sequence	apparent KD of MS2 coat protein (input ligand: FMN 200 uM) [nM]	apparent KD of MS2 coat protein (input ligand: none) [nM]	apparent KD of MS2 coat protein [3] [nM]	other results
GUGUACGGAGGAUAUAUAUGGGCAGGCUGACCUGCAGCUUCACAUGAGGAUCACCCAUGUAGAAGGCUGUGCAC [JL-ex2-2.07 Brourd mod] (puzzle: Exclusion 2)	–	–	27.1	–
GUGUACGGAGGAUAUAUGUGGCGAGCAUACGCUCGAGCUUCACAUGAGGAUCACCCAUGUAGAAGGCUGUGCAC [JL-ex2-2.12 Brourd mod] (puzzle: Exclusion 2)	–	–	17.9	–
GUGUAGAUAGGAUAUGCGUGAGUCUAGCGAAGCUAGAUUCUACAUGAGGAUCACCCAUGUAGAAGGGUCUACAC [Fiskers Ex 2 - 26] (puzzle: Exclusion 2)	–	–	15.9	–
GUGUAGGGAGGAUAUACAUGAGGAUCACCCAUGUGAAUAAGAUAGAAUAAGAUAAAGUGUAGAAGGUCUAGUGU [Excluse me!!! 12 - Jieux - Exclusion 3] (puzzle: Exclusion 3)	–	–	52.7	–
GUGUAGGUAGGAUAUACAUGAGGAUCACCCAUGUGAAUAAGAUAGAAUAAGAUAAAGUGUAGAAGGGCUAGUGU [Excluse me!!! 13 - Jieux - Exclusion 3] (puzzle: Exclusion 3)	–	–	34.5	–
GUGUGCUGAGGAUAUACAUAGGAAUAGAAUAGAAUAGAAUGACAUGAGGAUCACCCAUGUAGAAGGCAGAGUGU [Excluse me!! 13 - Jieux - Exclusion 2] (puzzle: Exclusion 2)	–	–	21.4	apparent KD of MS2 coat protein [2]: 39.6 nM; apparent KD of MS2 coat protein [4]: 24.8 nM
GUGUUGCGAGGAUAUAUAAGGGUAUGUUCUUGAGGUAUGGAACAUGAGGAUCACCCAUGUAGAAGGUGCAUAAC [JR_Ex2_Sub045] (Eterna round: R97, puzzle: Exclusion 2)	507	247	–	–
GUGUUGUAUGUAGGAUAUGCAUACUGUUAGUAUGCAGAAGGACAUGAGGAUCACCCAUGUAUAUUAUUAUUAUAUAUCAUACAU [MOD of Hoglahoo's Title] (Eterna round: R96, puzzle: Exclusion NG 1)	–	–	–	apparent KD of MS2 coat protein [1]: 15.2 nM
GUUAACGUAGGAUAUUAGUACAUGCACAUGAGGAUCACCCAUGUUUAGUGGGUCUAGGAAUAAGAAGGGCGAAGAA [EX5 #23] (Eterna round: R97, puzzle: Exclusion 5)	170	309	–	–
GUUAUGUAAGGAUAUAUGAGUCACGGUGAUACACCGUGAAGAUAGAAGGUACAUGAGGAUCACCCAUGUAAGGC [Mod of Anonveat 10 - Jieux - Exclusion 4] (Eterna round: R97, puzzle: Exclusion 4)	32.2	25.4	–	–
GUUAUGUCAGGAUAUGCUAAUGAUGAAUGAUCAGACAUAAUGUAGAAGGGACAUGAGGAUCACCCAUGUAAUAU [EX4 #6] (Eterna round: R97, puzzle: Exclusion 4)	29.4	23.3	–	–
GUUAUGUCAGGAUAUGCUAAUGAUGAAUGAUCAGACAUGAUGUAGAAGGGACAUGAGGAUCACCCAUGUAAUAU [EX4 #7] (Eterna round: R97, puzzle: Exclusion 4)	32.3	25	–	–
GUUAUUUAUGUAGGAUAUGCAAGGCGAACCUAAGCAGAAGGACAUGAGGAUCACCCAUGUAUUGCGGUCUGCGUUCAGAUCGCU [salish99_ExNG1_r4_013] (Eterna round: R96, puzzle: Exclusion NG 1)	86.2	22	–	apparent KD of MS2 coat protein [1]: 15 nM
GUUCAGUCAGGAUAUCAAUCCGCCUGUGAUACGCAGGCGGCUGAGAAGGGACAUGAGGAUCACCCAUGUAAAGA [jl-ex4-4.21 ViennaUCT mod] (Eterna round: R97, puzzle: Exclusion 4)	51.1	37.1	–	–
GUUCCGCGAGGAUAUACAGACGGGUCCAAAACGUGUCUCGGACUUGAGGAUCACCCAAGUAGAAGGCGUUUCAG [salish99_ex2_r4_622] (Eterna round: R97, puzzle: Exclusion 2)	20.4	22.1	–	–
GUUCGUGAGAAGGAUAUGAUUCUGGAACAAGAGUUAGAAGGUUUCACAUGAGGAUCACCCAUGUCUAGAAAACC [Eternabot (Original) Solution 32] (Eterna round: R97, puzzle: Exclusion 6)	12.2	10.7	–	–
GUUGACUGAUGAGGAUAUUCAUAAGAAUGGGCCUUGGUUUUACAUGAGGAUCACCCAUGUUGACAGAAGAAGGCAUCAGUCUGA [Eternabot solution 28] (Eterna round: R96, puzzle: Exclusion NG 2)	659	109	–	apparent KD of MS2 coat protein [1]: 120 nM
